Tests used:
[1] = biological target: T1, N-terminal 32 amino acids of huC16orf54 coupled to biotin (human, biotin at the C-terminus); assay: biolayer interferometry (OctetQK384), purified antibody on streptavidin sensors coated with the biotinylated peptide
T1 construct: also called 32 amino acid N-terminal extracellular domain
T1 peptide: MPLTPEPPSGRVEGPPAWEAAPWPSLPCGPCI
Experimental: Affinity measurements of purified anti-huC16orf54 antibodies were carried out on the OctetQK384® sytem (ForteBio). After coating streptavidin sensors with the N-terminal 32 amino acids of huC16orf54 coupled to biotin at the C-terminus, association and dissociation of purified anti-huC16orf54 antibodies was monitored. KD values were derived using ForteBio's software.

[2] = biological target: T2, cynomolgus monkey C16orf54 (cynomolgus monkey (Macaca fascicularis), UniProt Q6UWD8 1-224 (human entry)); assay: flow cytometry titration, F279-cyno-C16orf54 cells
T2 construct: also called cyno C16orf54; cyno-C16orf54
T2 chain: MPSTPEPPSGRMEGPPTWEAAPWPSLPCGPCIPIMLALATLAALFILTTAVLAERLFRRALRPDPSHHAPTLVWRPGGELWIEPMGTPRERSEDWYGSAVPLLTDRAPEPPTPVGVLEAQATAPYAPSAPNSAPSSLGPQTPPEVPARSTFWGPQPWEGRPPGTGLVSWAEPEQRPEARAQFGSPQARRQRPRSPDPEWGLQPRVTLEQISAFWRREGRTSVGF
Experimental: Anti-C16orf54 antibodies which bound to human C16orf54 were tested for their binding to cells expressing human C16orf54 and cells expressing cyno C16orf54. […] Median fluorescence intensities for each primary antibody concentration were used to derive a flow EC50/Kd using the one site-specific binding with Hill slope model in Prism (GraphPad Prism® Software). Results are shown as flow EC50 in Table 35.

[3] = biological target: T3, human C16orf54 ECD fragment aa1-15 (human); assay: peptide ELISA, 2 ug/ml peptide coated, 10 ug/ml antibody; column 'Human ECD & ECD fragments bound by antibody'
T3 peptide: MPLTPEPPSGRVEGP
Experimental: (§1) Anti-C16orf54 antibodies which bind to human C16orf54, including antibodies that are crossreactive with cyno C16orf54, were tested for their binding to various peptides derived from C16orf54 in a peptide ELISA. A 384-well high binding black microplate (Greiner) was incubated with 2 μg/ml of protein (human, cyno, or mouse extracellular domain peptides) for 16 hours, incubated for 1 hr with a blocking buffer (PBS with 5% Fetal Bovine Serum), washed four times with TBS with Tween, incubated for 1 hour with 10 μg/ml of anti-C16orf54 antibody, washed four times with TBS with Tween, incubated for 1 hour with 10 μg/ml of Peroxidase-AffiniPure Goat Anti-Mouse IgG, Fcγ Fragment Specific (Jackson ImmunoResearch), washed four times with TBS with Tween, and peroxidase was detected with a luminometer (Molecular Devices) upon addition of SuperSignal® ELISA Pico Chemiluminescent Substrate (Thermo Scientific). The luminescence signal was determined.

[4] = biological target: T4, human C16orf54 ECD fragment aa9-24 (human); assay: as above
T4 peptide: SGRVEGPPAWEAAPWP
Experimental: as §1

[5] = biological target: T1, N-terminal 32 amino acids of huC16orf54 …; assay: biolayer interferometry (OctetQK384), hybridoma supernatant on streptavidin sensors coated with the biotinylated peptide
Experimental: Eight anti-huC16orf54 monoclonal antibodies were further screened for binding and subsequent off-rate analysis using the OctetQK384® sytem (ForteBio). Hybridoma supernatants were screened for association to and dissocation from streptavidin sensors coated with the N-terminal 32 amino acids of huC16orf54 coupled to biotin, and the calculated offrates (kdis) are shown in Table 31. Cloned hybridomas with […] off-rates were carried forward for antibody purification.

human C16orf54 [6] = biological target: T5, human C16orf54 (human, UniProt Q6UWD8 1-224); assay: flow cytometry, 10 ug/ml antibody, D42M1-huC16orf54 cells
T5 construct: also called huC16orf54; hC16orf54
T5 sequence: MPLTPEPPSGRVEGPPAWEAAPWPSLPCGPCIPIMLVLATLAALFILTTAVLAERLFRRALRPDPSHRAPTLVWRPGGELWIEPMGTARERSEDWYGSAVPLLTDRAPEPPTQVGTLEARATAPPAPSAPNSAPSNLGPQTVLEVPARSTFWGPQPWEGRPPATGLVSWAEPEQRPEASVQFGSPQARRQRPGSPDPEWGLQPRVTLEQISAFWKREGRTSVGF
Experimental: (§2) Anti-C16orf54 antibodies which bound to human C16orf54 were tested for their reactivity with human C16orf54 and their crossreactivity with C16orf54 from cynomolgous monkeys (cyno C16orf54) using flow cytometry. Sarcoma cells transfected with and expressing human C16orf54 or cyno C16orf54 were washed with PBS with 0.1% BSA, incubated with FcX receptor blocking solution (BioLegend) for 15 minutes, incubated with 10 μg/ml of anti-C16orf54 antibody for 1 hour at 4° C., washed twice with PBS with 0.1% BSA, incubated with 20 μg/ml of R-Phycoerythrin-AffiniPure F(ab′)2 Fragment Goat Anti-Mouse IgG, Fcγ Fragment Specific (Jackson ImmunoResearch) for 30 minutes at 4° C., washed twice with PBS with 0.1% BSA, incubated with the viability dye TO-PRO-3 iodide (Life Technologies), and immediately analyzed on a MACSQuant Analyzer instrument (Miltenyi). For each cell line and anti-C16orf54 antibody, a fold change was derived by dividing the median fluorescence intensity for Phycoerythrin in the live cell population for the anti-C16orf54 antibody by the median fluorescence intensity for Phycoerythrin in the live cell population for the IgG isotype control antibody. A number of anti-C16orf54 antibodies (see, e.g., R29-8-57B, R29-8-136C, R29-7-1C, R29-67-7A, R29-67-4A, and R29-7-2A) bind human C16orf54 and also bind (e.g., are crossreactive with) cyno C16orf54.

[7] = biological target: T6, Human C16-ECD peptide (aa1-31) (human); assay: column head 'Full kinetics (nM)' in the table of the C16orf54 peptide binding assays; method and antigen not described; 4 runs
T6 construct: Coated on plates in the peptide ELISA; also called human extracellular domain peptide
T6 peptide: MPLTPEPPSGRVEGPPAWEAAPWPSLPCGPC

human C16orf54 [8] = biological target: T5, human C16orf54; assay: flow cytometry titration, KG1 cells (endogenous human C16orf54)
[9] = biological target: T2, cynomolgus monkey C16orf54; assay: flow cytometry, 10 ug/ml antibody, F279-cyno-C16orf54 cells
Experimental: as §2

[10] = biological target: T6, Human C16-ECD peptide (aa1-31); assay: column head 'Full kinetics (nM)' in the table of the C16orf54 peptide binding assays; method and antigen not described; 1 run
[11] = biological target: T3, human C16orf54 ECD fragment aa1-15; assay: peptide ELISA, 2 ug/ml peptide coated, 10 ug/ml antibody
Experimental: as §1

[12] = biological target: T4, human C16orf54 ECD fragment aa9-24; assay: as above
Experimental: as §1

[13] = biological target: T6, Human C16-ECD peptide (aa1-31); assay: column head 'Full kinetics (nM)' in the table of the C16orf54 peptide binding assays; method and antigen not described; 2 runs; 2 runs, stdev 0.02
[14] = biological target: T7, Cyno C16-ECD peptide (aa1-31) (cynomolgus monkey); assay: peptide ELISA, 2 ug/ml peptide coated, 10 ug/ml antibody; column 'Cyno ECD bound by antibody'
T7 construct: Coated on plates in the peptide ELISA; also called cyno extracellular domain peptide; Cyno ECD
T7 peptide: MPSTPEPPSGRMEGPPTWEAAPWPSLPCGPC
Experimental: as §1

[15] = biological target: T8, cynomolgus monkey C16orf54 (cynomolgus monkey (Macaca fascicularis)); assay: flow cytometry, 10 ug/ml antibody, F279-cyno-C16orf54 cells
T8 sequence: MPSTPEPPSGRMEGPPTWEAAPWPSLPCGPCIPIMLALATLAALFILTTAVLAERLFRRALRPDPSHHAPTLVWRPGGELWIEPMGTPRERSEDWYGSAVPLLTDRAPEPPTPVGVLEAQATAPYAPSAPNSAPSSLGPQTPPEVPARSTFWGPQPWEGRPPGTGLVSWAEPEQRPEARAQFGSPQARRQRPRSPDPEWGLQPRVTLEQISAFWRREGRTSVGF

B1: R29-7-2A (antibody, V domains shown)
VH: EVQLVESGGGLIQPKGSLKLSCVASGFSFNTHAMNWVRQAPGKGLEWVARIRSKSNNYARYYADSVKDRFTISRDDSQSILYLQMNNLKTEDTAMYYCVKQGDGGFAYWGQGTLVTVSA
VL: DIVMSQSPSSLAVSVGEKVTMSCKSSQSLLYSSNQKNYLAWYQQRPGQSPKLLIYWASARESGVPDRFTGSGSGTDFTLTISSVKAEDLAVYYCQQYYSYPPTFGAGTKVELK
notes: Murine monoclonal IgG2b from a hybridoma
Which Kd [1] does the source give for B1 here?
The Kd was 1.3 nM.

And the koff [1]?
Its koff is 4.12e-05 s⁻¹.

What about the kon [1] of the same binder?
The kon was 31900 M⁻¹ s⁻¹.

What about the EC50 [2] of the same binder?
Its EC50 is 2.7 nM.

Does B1 bind [3]?
Result: binds

Does B1 bind [4]?
Result: binds

And the koff [5]?
The koff was 0.00707 s⁻¹.

And the “Median fold change relative to IgG control” value (human C16orf54 [6])?
The value was 267 fold.

And the Kd [7]?
Its Kd is 1.01 nM.

And the EC50 (human C16orf54 [8])?
The EC50 was 1 nM.

And the “Median fold change relative to IgG control” value [9]?
The value was 78.5 fold.

B2: R29-67-7A (antibody, V domains shown)
VH: DVQLQESGPGLVKPSQSLSLTCTVTGYSITSDYAWNWIRQFPGNKLEWMGYINYSGRTRYNPSLNSRISLTRDTSTNQFFLQLNSVTTEDTATYYCARENYDYEFYAMDYWGQGTSVTVSS
VL: DIVMSQSPSSLAVSVGEKVTMSCKSSQNLLYSSNQKNYLAWYQQKPGQSPKLLIYWASTRESGVPDRFTGSGSGTDFTLTISSVKAEDLAVYYCQQYYIYRTFGGGTKLEIK
notes: Murine monoclonal IgG2a from a hybridoma
Which results are given for B2?
EC50 [2]: 3.7 nM; Kd [10]: 2.51 nM; koff [5]: 0.00845 s⁻¹; Median fold change relative to IgG control (human C16orf54 [6]): 140 fold; binding result [11]: binds; binding result [12]: binds; EC50 (human C16orf54 [8]): 7.3 nM; Median fold change relative to IgG control [9]: 35.6 fold

B3: R29-8-75B (antibody, V domains shown)
VH: DVQLVESGGGLVQPGGSRKLSCAASGFTFSRFGMHWVRQAPEKGLEWVAYISSGSSTIYYADTVKGRFTISRDNPKNTLFLQMTSLRSEDTAMYYCARVDYDVALAYWGQGTLVTVSA
VL: GVLMTQTPLSLPVSLGDQASISCRSSQSIVHRNGNTYLEWYLQKPGQSPKLLIYKVSNRFSGVPDRFSGSGSGTDFTLKISRVEAEDLGVYYCFQGSQWTFGGGTKLEIK
notes: Murine monoclonal antibody from a hybridoma
Does B3 bind [3]?
Result: binds

Does B3 bind [4]?
Result: binds

What about the Kd [13] of the same binder?
The Kd was 0.09 nM.

Does B3 bind [14]?
Result: binds

What about the “Median fold change relative to IgG control” value (human C16orf54 [6]) of the same binder?
The value was 148 fold.

What about the EC50 (human C16orf54 [8]) of the same binder?
Its EC50 is 6.5 nM.

What about the “Median fold change relative to IgG control” value [9] of the same binder?
The value was 7.8 fold.

B4: R29-8-58C (antibody, V domains shown)
VH: EVKLVESGGGLVKPGGSLKFSCAASGFTFSSYAVSWVRQTPEKRLEWVASITSGGRSYYPDSVKGRFTISRDNARSMLYLHMSSLRSEDTAMYYCTRGWDENDLWGQGTTLTVSS
VL: DVVMTQTPLSLFVSLGDQASISCRSSQSLLYSNGNTYLHWYLQRPGQSPQLLIYKVSNRFSGVPDRFSGSGSGTDFTLKISRVEAEDLGVYFCSQTTHVPWTFGGGTKLEIK
notes: as for B3
Which results are given for B4?
Median fold change relative to IgG control (human C16orf54 [6]): 184 fold; Median fold change relative to IgG control [15]: 1.4 fold; EC50 (human C16orf54 [8]): 0.6 nM

From patent US20150231240A1, “ANTI-C16ORF54 ANTIBODIES AND METHODS OF USE THEREOF” (priority 2012, published 2015)
